# According to patent publication US6395526B1, “DNA polymerase” (Takara Shuzo Co., Ltd., priority 1995, dated 2002):
# T1: second DNA polymerase-constituting protein (translation product of ORF4)
# T1 chain: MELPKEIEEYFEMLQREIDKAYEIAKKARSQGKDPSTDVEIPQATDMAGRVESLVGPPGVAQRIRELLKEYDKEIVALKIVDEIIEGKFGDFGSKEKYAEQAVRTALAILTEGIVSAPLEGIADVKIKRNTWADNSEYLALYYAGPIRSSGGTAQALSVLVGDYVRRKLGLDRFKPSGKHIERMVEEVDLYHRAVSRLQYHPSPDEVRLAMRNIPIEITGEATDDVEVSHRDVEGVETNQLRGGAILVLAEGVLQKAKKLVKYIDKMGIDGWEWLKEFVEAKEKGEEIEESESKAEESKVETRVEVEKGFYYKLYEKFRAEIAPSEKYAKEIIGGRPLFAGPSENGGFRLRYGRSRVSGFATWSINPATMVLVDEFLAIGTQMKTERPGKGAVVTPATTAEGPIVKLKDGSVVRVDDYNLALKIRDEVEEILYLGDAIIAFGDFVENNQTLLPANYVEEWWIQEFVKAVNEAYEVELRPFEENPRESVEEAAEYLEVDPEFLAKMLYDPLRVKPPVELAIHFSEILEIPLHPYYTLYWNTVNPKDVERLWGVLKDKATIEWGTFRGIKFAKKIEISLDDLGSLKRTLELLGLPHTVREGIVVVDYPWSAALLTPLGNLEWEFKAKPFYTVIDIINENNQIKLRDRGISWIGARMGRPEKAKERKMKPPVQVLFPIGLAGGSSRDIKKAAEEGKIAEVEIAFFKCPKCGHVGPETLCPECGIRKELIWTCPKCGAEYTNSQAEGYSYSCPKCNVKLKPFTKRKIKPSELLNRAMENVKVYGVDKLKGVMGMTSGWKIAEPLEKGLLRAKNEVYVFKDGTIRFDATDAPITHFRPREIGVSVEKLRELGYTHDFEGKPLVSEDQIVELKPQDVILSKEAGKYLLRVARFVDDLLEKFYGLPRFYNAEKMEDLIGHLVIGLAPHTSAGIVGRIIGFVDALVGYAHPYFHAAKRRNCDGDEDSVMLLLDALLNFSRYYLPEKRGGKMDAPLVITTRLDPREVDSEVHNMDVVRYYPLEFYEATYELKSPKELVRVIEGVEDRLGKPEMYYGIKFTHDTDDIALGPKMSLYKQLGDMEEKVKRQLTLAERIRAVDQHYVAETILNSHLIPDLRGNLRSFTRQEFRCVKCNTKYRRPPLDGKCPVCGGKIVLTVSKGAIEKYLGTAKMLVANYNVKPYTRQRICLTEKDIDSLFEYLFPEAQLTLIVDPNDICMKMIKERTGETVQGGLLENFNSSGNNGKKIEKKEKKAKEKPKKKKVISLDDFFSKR
# T2: second DNA polymerase-constituting protein (translation product of ORF4) (Pyrococcus furiosus, UniProt P81409 1-1263)
# T2 construct: Subunit of the two-protein DNA polymerase from Pyrococcus furiosus DSM3638; Expressed in E. coli, either together with ORF3 from pFU1001 or alone from pFU-ORF4; About 140,000 Da on SDS-PAGE; also called ORF4 translation product; ORF4-derived translation product
# T2 sequence: T1 chain
# B1: Pfu DNA Polymerase: α-type DNA polymerase derived from Pyrococcus furiousus, manufactured by Stratagene (protein, UniProt P61875 1-775, looked up)
# DNA polymerase: MILDVDYITEEGKPVIRLFKKENGKFKIEHDRTFRPYIYALLRDDSKIEEVKKITGERHGKIVRIVDVEKVEKKFLGKPITVWKLYLEHPQDVPTIREKVREHPAVVDIFEYDIPFAKRYLIDKGLIPMEGEEELKILAFDIETLYHEGEEFGKGPIIMISYADENEAKVITWKNIDLPYVEVVSSEREMIKRFLRIIREKDPDIIVTYNGDSFDFPYLAKRAEKLGIKLTIGRDGSEPKMQRIGDMTAVEVKGRIHFDLYHVITRTINLPTYTLEAVYEAIFGKPKEKVYADEIAKAWESGENLERVAKYSMEDAKATYELGKEFLPMEIQLSRLVGQPLWDVSRSSTGNLVEWFLLRKAYERNEVAPNKPSEEEYQRRLRESYTGGFVKEPEKGLWENIVYLDFRALYPSIIITHNVSPDTLNLEGCKNYDIAPQVGHKFCKDIPGFIPSLLGHLLEERQKIKTKMKETQDPIEKILLDYRQKAIKLLANSFYGYYGYAKARWYCKECAESVTAWGRKYIELVWKELEEKFGFKVLYIDTDGLYATIPGGESEEIKKKALEFVKYINSKLPGLLELEYEGFYKRGFFVTKKRYAVIDEEGKVITRGLEIVRRDWSEIAKETQARVLETILKHGDVEEAVRIVKEVIQKLANYEIPPEKLAIYEQITRPLHEYKAIGPHVAVAKKLAAKGVKIKPGMVIGYIVLRGDGPISNRAILAEEYDPKKHKYDAEYYIENQVLPAVLRILEGFGYRKEDLRYQKTRQVGLTSWLNIKKS
# B2: first DNA polymerase-constituting protein (translation product of ORF3) (enzyme)
# chain: MDEFVKSLLKANYLITPSAYYLLREYYEKGEFSIVELVKFARSRESYIITDALATEFLKVKGLEPILPVETKGGFVSTGESQKEQSYEESFGTKEEISQEIKEGESFISTGSEPLEEELNSIGIEEIGANEELVSNGNDNGGEAIVFDKYGYPMVYAPEEIEVEEKEYSKYEDLTIPMNPDFNYVEIKEDYDVVFDVRNVKLKPPKVKNGNGKEGEIIVEAYASLFRSRLKKLRKILRENPELDNVVDIGKLKYVKEDETVTIIGLVNSKREVNKGLIFEIEDLTGKVKVFLPKDSEDYREAFKVLPDAVVAFKGVYSKRGILYANKFYLPDVPLYRRQKPPLEEKVYAILISDIHVGSKEFCENAFIKFLEWLNGNVETKEEEEIVSRVKYLIIAGDVVDGVGVYPGQYADLTIPDIFDQYEALANLLSHVPKHITMFIAPGNHDAARQAIPQPEFYKEYAKPIYKLKNAVIISNPAVIRLHGRDFLIAHGRGIEDVVGSVPGLTHHKPGLPMVELLKMRHVAPMFGGKVPIAPDPEDLLVIEEVPDVVHMGHVHVYDAVVYRGVQLVNSATWQAQTEFQKMVNIVPTPAKVPVVDIDTAKVVKVLDFSGWC
# notes: Subunit of the two-protein DNA polymerase from Pyrococcus furiosus DSM3638; Expressed in E. coli, either together with ORF4 from pFU1001 or alone from pFU-ORF3; About 90,000 Da on SDS-PAGE; also called ORF3 translation product; ORF3-derived translation product
# Tests used:
# [1] = test system: substrate DNA (template-primer); experiment: DNA polymerase activity on different forms of substrate DNA (template-primer); format: biochemical
# Description: The DNA polymerase activity was assayed using calf thymus DNA (manufactured by Worthington) activated by DNase I treatment (activated DNA) as a substrate. DNA activation and assay of DNA polymerase activity were carried out by the method described in DNA Polymerase from Escherichia coli, 263-276 (authored by C. C. Richardson), published by Harper & Row, edited by D. R. Davis.
# An assay of enzyme activity was carried out by the following method. Specifically, 50 μl of a reaction solution [20 mM Tris-HCl (pH 7.7), 15 mM MgCl2, 2 mM 2-mercaptoethanol, 0.2 mg/ml activated DNA, 40 μM each of dATP, dCTP, dGTP and dTTP, 60 nM [^3H]-dTTP (manufactured by Amersham)], containing a sample for assaying its activity, was prepared and reacted at 75° C. for 15 minutes. A 40 μl portion of this reaction mixture was then spotted onto a DE paper (manufactured by Whatman) and washed with 5% Na2HPO4 five times. The remaining radioactivity on the DE paper was assayed using a liquid scintillation counter. The amount of enzyme which incorporated 10 nmol of [^3H]-dTMP per 30 minutes into the substrate DNA, assayed by the above-described enzyme activity assay method, was defined as one unit of the enzyme.
# Next, in order to compare the selectivity of the DNA polymerase of the present invention for different forms of substrate DNA, the following template-primer was examined. Aside from the activated DNA used for conventional assay of the activity, those prepared as substrates include a thermal-denatured DNA prepared by treating the activated DNA at 85° C. for 5 minutes; M13-HT Primer prepared by annealing a 45-base synthetic deoxyribooligonucleotide of the sequence as shown by SEQ ID NO:6 in Sequence Listing as a primer to the M13 phage single stranded DNA (M13mp18 ssDNA, manufactured by Takara Shuzo Co., Ltd.); M13-RNA Primer prepared by annealing a 17-base synthetic ribooligonucleotide of the sequence as shown by SEQ ID NO:7 in Sequence Listing as a primer to the same M13 phage single stranded DNA; Poly dA-Oligo dT prepared by mixing polydeoxyadenosine (Poly dA, manufactured by Pharmacia) and oligodeoxythymidine (Oligo dT, manufactured by Pharmacia) in a 20:1 molar ratio; and Poly A-Oligo dT prepared by mixing polyadenosine (Poly A, manufactured by Pharmacia) and oligodeoxythymidine in a 20:1 molar ratio.
# The DNA polymerase activity was assayed using these substrates in place of the activated DNA. The relative activity of each substrate when the activity obtained in the case of using an activated DNA as a substrate is defined as 100 is shown in Table 1. For comparison, the Pfu DNA polymerase and the Taq DNA polymerase derived from Thermus aquaticus (TaKaRa Taq, manufactured by Takara Shuzo Co., Ltd.) were also examined in the same manner.
# M13-HT Primer = experiment: Primer extension reaction (autoradiogram, FIG. 6); format: biochemical; conditions: activated DNA added in great excess
# Description: The primer extension activity was further investigated extensively. The M13-HT Primer, previously labeled with [γ-^32P]-ATP (manufactured by Amersham) and T4 polynucleotide kinase (manufactured by Takara Shuzo Co., Ltd.) at the 5′-end, was used as a substrate. Ten microliters of a reaction mixture [20 mM Tris-HCl (pH 7.7), 15 mM MgCl2, 2 mM 2-mercaptoethanol, 270 μM each of dATP, dGTP, dCTP and dTTP] containing the above substrate in a final concentration of […] and various DNA polymerases in amounts providing 0.05 units of activity as assayed with the activated DNA as a substrate was reacted at 75° C. for 1, 2, 3, or 4 minutes. After termination of the reaction, 2 μl of a reaction stop solution (95% […], 20 mM EDTA, 0.05% bromophenol blue, 0.05% xylenecyanol) was added, subjected to thermal denaturation treatment at 95° C. for 3 minutes. Two microliters of the reaction mixture was then subjected to electrophoresis using polyacrylamide gel containing 8 M urea and subsequently subjected to a preparation of autoradiogram. Also, in order to examine the extension activity in the presence of the activated DNA as a competitor substrate, the activated DNA was added to the above reaction mixture to a final concentration of […], and subjected to a preparation of an autoradiogram by the same procedures as described above.
# In the figure, Pol, Pfu, and Taq show the results for the DNA polymerase of the present invention, the Pfu DNA polymerase and the Taq DNA polymerase, respectively. In addition, 1, 2, 3, and 4 each indicates reaction time (min). In the figure, the representation “−” and “+” show the results obtained in the absence and in the presence, respectively, of the activated DNA. The lanes G, A, T, and C at the left end of the figure also show the results of electrophoresis of the reaction products obtained by a chain termination reaction by the dideoxy method using the same substrate as above, which were used to estimate the length of each extension product.
# λ-DNA = conditions: reported, enzyme used alone; cited from earlier work
# [2] = target: T1, second DNA polymerase-constituting …
# [3] = target: T2, second DNA polymerase-constituting …; experiment: gel filtration (Superose 6) of the co-expressed, purified polymerase; activity peaks at about 385 kDa and about 220 kDa
# Description: Ten milliliters of an enzyme solution obtained by collecting as an active fraction was desalted and concentrated by ultrafiltration, and dissolved in buffer A+150 mM NaCl to yield 3.5 ml of an enzyme solution. The resulting enzyme solution was then applied to a Hi Trap Heparin column (manufactured by Pharmacia), previously equilibrated with the same buffer. A chromatogram was developed on a linear concentration gradient from 150 to 650 mM NaCl using an FPLC system, to yield an active fraction eluted at 400 mM NaCl. Five milliliters of this fraction was concentrated to 120 µl of a solution including 50 mM potassium phosphate, pH 6.5, 2 mM 2-mercaptoethanol, and 75 mM NaCl by repeating desalting and concentration using ultrafiltration. The resulting concentrated solution was then applied to a gel filtration column of Superose 6 (manufactured by Pharmacia), previously equilibrated with the same buffer, and eluted with the same buffer. As a result, a fraction having a DNA polymerase activity was eluted at positions corresponding to retention times of 34.7 minutes and 38.3 minutes. […] These molecular weights corresponded to a complex formed by the translation product of ORF3 and the translation product of ORF4 in a molar ratio of 1:2 and another complex formed by the above translation products in a molar ratio of 1:1, respectively. […]
binding result [3],Molecule,"Relative Activity ([1]; substrate M13-HT primer, activated DNA = 100)","Relative Activity ([1]; substrate M13-RNA primer, activated DNA = 100)",Relative Activity ([1]; substrate activated DNA (defined as 100)),"Relative Activity ([1]; substrate poly dA-Oligo dT, activated DNA = 100)","Relative Activity ([1]; substrate thermal-denatured DNA, activated DNA = 100)",inhibition of primer extension by activated DNA as competitor substrate (M13-HT Primer),strand length of DNA amplifiable by PCR (λ-DNA),thermostable DNA polymerase activity [2]
–,B1,23,0.49,100,390,87,strongly inhibited,at most 3 kbp,–
binds,B2,–,–,–,–,–,–,–,"although neither of the ORF translation products thus purified exhibited the DNA polymerase activity when assayed alone, thermostable DNA polymerase activity was exhibited when they were mixed together"
